Laboratory results taken from paper PMC4960319, “The anti-sigma factor RsrA responds to oxidative stress by reburying its hydrophobic core” (Nature Communications, 2016).
Where a chain is given by its changes, count along the chain named. Names and notes keep the numbering of the source. Values joined by “and” are separate entries in the source; they are usually repeats but may differ in a detail not shown here. Equal values may be shown once.

How the values were obtained:
Settings in all cases: both partners purified
σR Trp88Ile Trp119Ile = molecular target: T1, σR Trp88Ile Trp119Ile (Streptomyces coelicolor, UniProt Q7AKG9 5-227, Trp88Ile | Trp119Ile); assay: ITC; competition ITC as for the wild-type complex (Figure 3a): RsrAred.Zn2+ (100 μM) titrated into σR (10 μM, cell) in the presence of 50 μM weak competitor RsrA* Cys11Ser Cys44Ser; 35 °C, 50 mM Tris pH 7.5, 100 mM NaCl, 2 mM DTT
T1 construct: ECF sigma factor σR (SigR) of Streptomyces coelicolor; mutant of the tagless construct of residues 5-227 (all σR mutants were similarly purified); The limits are those of the wild-type construct; source: E. coli BL21(DE3), purified as wild-type σR

σR (residues 5-227) [1] = molecular target: T2, σR (residues 5-227) (Streptomyces coelicolor, UniProt Q7AKG9 5-227); assay: stopped-flow tryptophan fluorescence; 25 °C, with zinc; kon: pseudo-first-order, σR 125 nM, RsrA 1.25-2.5 μM; koff: 2.5 μM complex displaced with 25 μM σR Trp88Ile Trp119Ile; Kd = koff/kon; 50 mM Tris pH 7.5, 100 mM NaCl, 2 mM DTT
T2 construct: ECF sigma factor σR (SigR) of Streptomyces coelicolor; residues 5-227 subcloned into pET21a with a C-terminal stop codon for tagless expression; also called sigma factor σR; SigR; source: E. coli BL21(DE3), purified without tags (ammonium sulfate precipitation, Q-Sepharose, Hi-Load S75)

σR (residues 5-227) [2] = molecular target: T2, σR (residues 5-227); assay: stopped-flow tryptophan fluorescence; 35 °C, with zinc; kon: pseudo-first-order, σR 125 nM, RsrA 1.25-2.5 μM; koff: 2.5 μM complex displaced with 25 μM σR Trp88Ile Trp119Ile; Kd = koff/kon; 50 mM Tris pH 7.5, 100 mM NaCl, 2 mM DTT
σR (residues 5-227) [3] = molecular target: T2, σR (residues 5-227); assay: stopped-flow tryptophan fluorescence; 25 °C, without zinc (EDTA-treated RsrA); kon: pseudo-first-order, σR 125 nM, RsrA 1.25-2.5 μM; koff: 2.5 μM complex displaced with 25 μM σR Trp88Ile Trp119Ile; Kd = koff/kon; 50 mM Tris pH 7.5, 100 mM NaCl, 2 mM DTT
σR (residues 5-227) [4] = molecular target: T2, σR (residues 5-227); assay: stopped-flow tryptophan fluorescence; 35 °C, without zinc (EDTA-treated RsrA); kon: pseudo-first-order, σR 125 nM, RsrA 1.25-2.5 μM; koff: 2.5 μM complex displaced with 25 μM σR Trp88Ile Trp119Ile; Kd = koff/kon; 50 mM Tris pH 7.5, 100 mM NaCl, 2 mM DTT
[5] = molecular target: T3, σ^R (sigma factor SigR) from Streptomyces coelicolor, residues 5-227, tagless (Streptomyces coelicolor, UniProt Q7AKG9 5-227); assay: ITC; direct titration in the absence of zinc: RsrA^red (100 μM), σ^R (10 μM); 35 °C, 50 mM Tris pH 7.5, 100 mM NaCl, 2 mM DTT; single site model
T3 construct: ECF sigma factor σ^R (SigR) of Streptomyces coelicolor, residues 5-227 subcloned into pET21a (NdeI, BamHI) with a C-terminal stop codon; also called wild-type σ^R; source: E. coli BL21(DE3), pET21a, purified without tags (ammonium sulfate, Q-Sepharose, Hi-Load S75)

[6] = molecular target: T3, σ^R (sigma factor SigR) from …; assay: ITC; competition ITC: RsrA^red.Zn^2+ (100 μM) titrated into σ^R (10 μM) with 50 μM weak-binding RsrA mutant in the cell; 35 °C, 50 mM Tris pH 7.5, 100 mM NaCl, 2 mM DTT; competitive binding model
[7] = molecular target: T3, σ^R (sigma factor SigR) from …; assay: stopped-flow tryptophan fluorescence; dissociation by competition, with zinc: 2.5 μM complex mixed with 25 μM σ^R Trp88Ile Trp119Ile (10-fold excess); 25 or 35 °C, 50 mM Tris pH 7.5, 100 mM NaCl
[8] = molecular target: T3, σ^R (sigma factor SigR) from …; assay: stopped-flow tryptophan fluorescence; dissociation by competition, without zinc (apo-RsrA): 2.5 μM complex mixed with 25 μM σ^R Trp88Ile Trp119Ile (10-fold excess); 25 °C, 50 mM Tris pH 7.5, 100 mM NaCl
σ^R Trp88Ile Trp119Ile = molecular target: T4, σ^R Trp88Ile Trp119Ile (Streptomyces coelicolor, UniProt Q7AKG9 5-227, Trp88Ile | Trp119Ile); assay: stopped-flow tryptophan fluorescence; dissociation by competition, with zinc: 2.5 μM complex mixed with 25 μM σ^R Trp88Ile Trp119Ile (10-fold excess); 25 or 35 °C, 50 mM Tris pH 7.5, 100 mM NaCl
T4 construct: ECF sigma factor σ^R (SigR) of Streptomyces coelicolor; both tryptophans replaced; The limits 5-227 are those stated for the tagless wild-type construct; source: E. coli BL21(DE3), purified as wild-type σ^R ("All σ^R mutants were similarly purified")

σR (residues 5-227) [9] = molecular target: T2, σR (residues 5-227); assay: ITC; with zinc (+), RsrA preincubated with 1 mM ZnCl2 and buffer exchanged; direct titration for weaker binding mutants (methods: 10 μM RsrA in the cell, 100 μM σR in the syringe); 35 °C, 50 mM Tris pH 7.5, 100 mM NaCl, 2 mM DTT; single binding site model
σR (residues 5-227) [10] = molecular target: T2, σR (residues 5-227); assay: ITC; without zinc (-); direct titration; 35 °C, 50 mM Tris pH 7.5, 100 mM NaCl, 2 mM DTT; single binding site model
σR (residues 5-227) [11] = molecular target: T2, σR (residues 5-227); assay: ITC; with zinc (+); 35 °C, 50 mM Tris pH 7.5, 100 mM NaCl, 2 mM DTT; the table does not tell whether this sub-nanomolar value came from a direct or a competition titration
[12] = molecular target: T3, σ^R (sigma factor SigR) from …; assay: ITC; RsrA mutants (values in Supplementary Table 1); 35 °C, 50 mM Tris pH 7.5, 100 mM NaCl, 2 mM DTT; direct titration for weaker binding mutants (10 μM RsrA in the cell, 100 μM σ^R in the syringe); RsrA preincubated with ZnCl2 and buffer exchanged where zinc was included

B1: RsrA wild type (natural protein, Streptomyces coelicolor, UniProt Q7AKG8 1-105, looked up)
chain: MSCGEPHETDCSEILDHLYEFLDKEMPDSDCVKFEHHFEECSPCLEKYGLEQAVKKLVKRCCGQDDVPGDLRAKVMGRLDLIRSGQSVPEHDVAAAPSSSAPQES
notes: Reduced protein; used with one equivalent of zinc or after EDTA treatment without zinc (told by the assay); also called RsrAred.Zn2+ (with one zinc); RsrAred (without zinc); source: E. coli BL21(DE3) pLysS, purified by a His-tag that was removed by thrombin; not shown: His tag, N-terminal, cleaved
Kd (σR Trp88Ile Trp119Ile): 0.173 nM
stoichiometry N (σR Trp88Ile Trp119Ile): 1.17
Kd (σR (residues 5-227) [1]): 0.13 nM
koff (σR (residues 5-227) [1]): 0.00071 s⁻¹
kon (σR (residues 5-227) [1]): 5.4e+06 M⁻¹ s⁻¹
Kd (σR (residues 5-227) [2]): 0.27 nM
koff (σR (residues 5-227) [2]): 0.0024 s⁻¹
kon (σR (residues 5-227) [2]): 8.9e+06 M⁻¹ s⁻¹
Kd (σR (residues 5-227) [3]): 24.9 nM
koff (σR (residues 5-227) [3]): 0.286 s⁻¹
kon (σR (residues 5-227) [3]): 1.15e+07 M⁻¹ s⁻¹
Kd (σR (residues 5-227) [4]): 62.4 nM
koff (σR (residues 5-227) [4]): 1.08 s⁻¹
kon (σR (residues 5-227) [4]): 1.73e+07 M⁻¹ s⁻¹

B2: RsrA (wild type), anti-sigma factor from Streptomyces coelicolor (natural protein, UniProt Q7AKG8 1-105, looked up)
chain: B1 chain
notes: Used reduced with one zinc ion at the ZAS motif (RsrA^red.Zn^2+) or reduced without zinc (EDTA-treated); the assay tells which; also called RsrA^red.Zn^2+; RsrA^red; source: E. coli BL21(DE3) pLysS, purified using a His-tag that was removed by thrombin cleavage; not shown: His-tag, N-terminal, cleaved
Kd [5]: 79.3 ± 4.2 nM
dH [5]: -16.26 ± 0.13 kcal/mol
stoichiometry N [5]: 0.97 ± 0.004
Kd [6]: 0.78 nM and ~0.7 nM
dH [6]: -23.1 kcal/mol
stoichiometry N [6]: 1.01
fold, kinetically derived Kd at 25 °C lower than at 35 °C [7]: ~2 fold
fold increase of koff without zinc against with zinc [8]: 400 fold
koff [8]: ~0.3 s⁻¹

B3: RsrA* Cys11His (natural protein, Streptomyces coelicolor, UniProt Q7AKG8 1-105, looked up)
chain: B1 chain with C3A, C11H, C31A, C61A, C62A
notes: The complex with σ^R analysed by native MS has a theoretical mass of 40,128.08 Da, which may mean that tags were present in that sample; also called RsrA*^red.Zn^2+ Cys11His; source: E. coli BL21(DE3) pLysS, purified using a His-tag that was removed by thrombin cleavage; not shown: His-tag, N-terminal, cleaved
binding result (σ^R Trp88Ile Trp119Ile): binds
koff [7]: 0.064 s⁻¹

B4: RsrA* (RsrA with Cys3, Cys31, Cys61 and Cys62 mutated to alanine) (natural protein, Streptomyces coelicolor, UniProt Q7AKG8 1-105, looked up)
chain: B1 chain with C3A, C31A, C61A, C62A
notes: the four non-essential cysteines mutated to alanine; also called RsrA*^red.Zn^2+; source: E. coli BL21(DE3) pLysS, purified using a His-tag that was removed by thrombin cleavage; not shown: His-tag, N-terminal, cleaved
binding result (σ^R Trp88Ile Trp119Ile): binds
koff [7]: 0.0027 s⁻¹

B5: RsrA* Cys11His Cys41His Cys44His (natural protein, Streptomyces coelicolor, UniProt Q7AKG8 1-105, looked up)
chain: B1 chain with C3A, C11H, C31A, C41H, C44H, C61A, C62A
notes: Non-oxidative control; also called triple mutant; RsrA*^red.Zn^2+ Cys11His Cys41His Cys44His; source: E. coli BL21(DE3) pLysS, purified using a His-tag that was removed by thrombin cleavage; not shown: His-tag, N-terminal, cleaved
binding result (σ^R Trp88Ile Trp119Ile): binds
koff [7]: ~2.3 s⁻¹

B6: RsrA* C11S C44S (natural protein, Streptomyces coelicolor, UniProt Q7AKG8 1-105, looked up)
chain: B1 chain with C3A, C11S, C31A, C44S, C61A, C62A
notes: also called RsrA* Cys11Ser Cys44Ser; source: E. coli BL21(DE3) pLysS, purified by a His-tag that was removed by thrombin; not shown: His tag, N-terminal, cleaved
binding result (σR Trp88Ile Trp119Ile): binds

B7: RsrA* C41S C44S (natural protein, Streptomyces coelicolor, UniProt Q7AKG8 1-105, looked up)
chain: B1 chain with C3A, C31A, C41S, C44S, C61A, C62A
notes: source: E. coli BL21(DE3) pLysS, purified by a His-tag that was removed by thrombin; not shown: His tag, N-terminal, cleaved
Kd (σR (residues 5-227) [9]): 297 nM

B8: RsrA* C11H C41H C44H (natural protein, Streptomyces coelicolor, UniProt Q7AKG8 1-105, looked up)
chain: B1 chain with C3A, C11H, C31A, C41H, C44H, C61A, C62A
notes: also called RsrA* Cys11His Cys41His Cys44His; source: E. coli BL21(DE3) pLysS, purified by a His-tag that was removed by thrombin; not shown: His tag, N-terminal, cleaved
Kd (σR (residues 5-227) [9]): 305 nM

B9: RsrA* C11S C41S (natural protein, Streptomyces coelicolor, UniProt Q7AKG8 1-105, looked up)
chain: B1 chain with C3A, C11S, C31A, C41S, C61A, C62A
notes: as for B7
Kd (σR (residues 5-227) [9]): 240 nM

B10: RsrA* (natural protein, Streptomyces coelicolor, UniProt Q7AKG8 1-105, looked up)
chain: B1 chain with C3A, C31A, C61A, C62A
notes: also called RsrA*red.Zn2+; source: E. coli BL21(DE3) pLysS, purified by a His-tag that was removed by thrombin; not shown: His tag, N-terminal, cleaved
Kd (σR (residues 5-227) [10]): 183 nM
Kd (σR (residues 5-227) [11]): 0.23 nM

B11: RsrA V54A L57A (natural protein, Streptomyces coelicolor, UniProt Q7AKG8 1-105, looked up)
chain: B1 chain with V54A, L57A
notes: also called RsrA Val54Ala Leu57Ala; source: E. coli BL21(DE3) pLysS, purified by a His-tag that was removed by thrombin; not shown: His tag, N-terminal, cleaved
Kd (σR (residues 5-227) [9]): 105 nM

B12: RsrA V75A L79A (natural protein, Streptomyces coelicolor, UniProt Q7AKG8 1-105, looked up)
chain: B1 chain with V75A, L79A
notes: also called RsrA Val75Ala Leu79Ala; source: E. coli BL21(DE3) pLysS, purified by a His-tag that was removed by thrombin; not shown: His tag, N-terminal, cleaved
Kd (σR (residues 5-227) [9]): 82.1 nM

B13: RsrA* Cys11Ser Cys44Ser (natural protein, Streptomyces coelicolor, UniProt Q7AKG8 1-105, looked up)
chain: B1 chain with C3A, C11S, C31A, C44S, C61A, C62A
notes: source: E. coli BL21(DE3) pLysS, purified using a His-tag that was removed by thrombin cleavage; not shown: His-tag, N-terminal, cleaved
Kd [12]: 185 nM

B14: RsrA* Cys41His (natural protein, Streptomyces coelicolor, UniProt Q7AKG8 1-105, looked up)
chain: B1 chain with C3A, C31A, C41H, C61A, C62A
notes: as for B13
binding result [12]: binds

B15: RsrA* Cys44His (natural protein, Streptomyces coelicolor, UniProt Q7AKG8 1-105, looked up)
chain: B1 chain with C3A, C31A, C44H, C61A, C62A
notes: as for B13
binding result [12]: binds

B16: RsrA* C11S (natural protein, Streptomyces coelicolor, UniProt Q7AKG8 1-105, looked up)
chain: B1 chain with C3A, C11S, C31A, C61A, C62A
notes: as for B7
Kd (σR (residues 5-227) [9]): 79 nM
